Source: paper doi:10.1101/2022.12.05.519077

Target: Kcnj13 (Kir7.1) from D. rerio fused to mCherry, with N-terminal His-tags (D. rerio)
Experiment: mass photometry

**Q.** Which stoichiometry N does the source give for “Kcnj13 (Kir7.1) from D. rerio fused to mCherry, with N-terminal His-tags (natural protein)” here?
**A.** 4
